This note sets out measurements from the nanobody polyreactivity screen of Harvey et al. (2022).

The data set can be described thus: yeast display, Sf9 membrane polyspecificity reagent, FACS + sequencing; frameworks hold sequencing errors. The method in brief:
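After 36–48 hours of galactose induction, yeast (Saccharomyces cerevisiae BJ5465) displaying a synthetic nanobody library were stained at 4 °C for 1 hour with 10% biotinylated, detergent-solubilized Sf9 membrane reagent. Streptavidin microbeads enriched the stained cells before FACS sorting into low and high (top ~1%) gates on anti-HA and streptavidin fluorescence. Each clone's polyreactivity label reflects its gate of origin.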
On to “QVQLVESGGGLVQAGGSLRLSCAASGRTFPHYAMGWYRQAPGKERELVAAISSSGGSTYYADSVKGRFTISRDNAKNTVYLQMNSLKPEDNAVYYCAARYVDDGWKYDYWGQGTQVTVSS”, for which the “polyreactivity (PSR sort gate)” value was “low polyreactivity”.

For “QVQLVESGGGLVQAGGSLRLSCAASGRTFPINAMGWYRQAPGKERELVASIRWTDGTTYYADSVKGRFTISRDNAKNTVYLQMNSLKPEDTAVYYCAADAEGSASKYDYWGQGTQVTVSS”, the “polyreactivity (PSR sort gate)” value is “low polyreactivity”.

As for “QVQLVESGGGLVQAGGSLRLSCAASGRTFPLNAMGWYRQAPGKERELVASITKSTGNTRYADSVKGRFTISRDNAKNTVYLQMNSLKPEDTAVYYCAARSYRDRYYWGQGTQVNVSS”, the “polyreactivity (PSR sort gate)” value is listed as “high polyreactivity”.

Take “QVQLVESGGGLVQAGGSLRLSCAASGRTFPLYAMGWYRQAPGKERELVAAISLSGGRTYYADSVKGRFTISRDNAKNTVYLQMNSLKPEDTAVYYCAARGTLSAQVGIRRYDYWGQGTQVTVSS”: the “polyreactivity (PSR sort gate)” value is listed as “low polyreactivity”.

Regarding “QVQLVESGGGLVQAGGSLRLSCAASGRTFPRNAMGWSRQAPGKERELVAAISSTGDSTYYADSVKGRFTISRDNAKNTVYLQMNSLKPEDTAVYYCHYPYDYWGKGTQVTVSS”, the “polyreactivity (PSR sort gate)” value was “low polyreactivity”.

Regarding “QVQLVESGGGLVQAGGSLRLSCAASGRTFPRNGMGWYRQAAGKERELVAAICWSGGRTYYADSVKGRFTISRDNAKNTVYLQMNSLKPEDTAVYYCNALYFRKGGYWGQGTQVTVSS”, the “polyreactivity (PSR sort gate)” value is “high polyreactivity”.

For the sequence “QVQLVESGGGLVQAGGSLRLSCAASGRTFPRNGMGWYRQAPGTERELVAAISWSGGRTYYADSVKGRFTISRDNAKNTVYLQMNSLKPEDTAVYYCNALYFRKGGYWGQGTQVTVSS”, the “polyreactivity (PSR sort gate)” value is “high polyreactivity”.

In the case of “QVQLVESGGGLVQAGGSLRLSCAASGRTFPRYAMGWYRPAAGKVWELVAAISVRAGITYYADSVKGRFTISRDNAKNTVYFQMNSLKPEDTAVYYCAKDHWTTSYDEGDYWGQGTQETVSS”, the “polyreactivity (PSR sort gate)” value was “low polyreactivity”.

Take “QVQLVESGGGLVQAGGSLRLSCAASGRTFPRYAMGWYRQAPGKERELVAGISWSGGRTYYADSVKGRFTISRDNAKNTVYLQMNSLKPEDTAVYYCAVVSKNLSYRTTFYYWGQGTQVTVSS”: the “polyreactivity (PSR sort gate)” value is listed as “high polyreactivity”.

As for “QVQLVESGGGLVQAGGSLRLSCAASGRTFPRYTMGWYRQAPGKERELVAASATGGSTYYADSVKGRFTISRDNAKNTVYLQMNSLKPEDTAVYYCAAYKLYPYYSTEYDYWGQGTQVTVSS”, the “polyreactivity (PSR sort gate)” value is “high polyreactivity”.

As for “QVQLVESGGGLVQAGGSLRLSCAASGRTFPRYVMGWNRQAPGKERELVAAISSSGGSTYYADSVKGRFTISRDNAKNTVYLQMNSLKPEDTAVYYCAAPSGGSKRYYYWGQGTKVTVSS”, the “polyreactivity (PSR sort gate)” value is “high polyreactivity”.

On to “QVQLVESGGGLVQAGGSLRLSCAASGRTFPSYAMGWYRQAPGKERELVAAITRGGSTNYADSVKGRFTISRDNAKNTVYLQMNSLKPEDTAVYYCAAARWRWQLARDDYWGQGTQVTVSS”, for which the “polyreactivity (PSR sort gate)” value was “high polyreactivity”.

Consider “QVQLVESGGGLVQAGGSLRLSCAASGRTFPSYAMGWYRQAPGKERELVAAITRGGSTNYADSVKGRFTISRDNAKNTVYLQMNSLKPEDTAVYYWAAARWRWQLARDDYWGQGTQVTVSS”, for which the “polyreactivity (PSR sort gate)” value was “high polyreactivity”.

For “QVQLVESGGGLVQAGGSLRLSCAASGRTFPSYAMGWYRQAPGTERELVAAITVSGGNTYYAHSVKGRFTISRDNAKNTVYLQMNSLKPEDTAVYYCNTPSYVSWYVHYYYWGQGTQVTVSS”, the “polyreactivity (PSR sort gate)” value was “low polyreactivity”.

Consider “QVQLVESGGGLVQAGGSLRLSCAASGRTFPSYAMGWYRQSPGKERELVAAITVSGGNTYYADSVKGRFTISRDNAKNTVYLQMNSLKPEDTAVYYCNTASYVSWYVHYYYWGQGTQVTVSS”, for which the “polyreactivity (PSR sort gate)” value is reported as “low polyreactivity”.

For the sequence “QVQLVESGGGLVQAGGSLRLSCAASGRTFPTNAMGWYRQAPGKERELVARITWSGGSTYADSVKGRFTISRDNAKNTVYFQMNSLKPEDTAVYYCAARGYKPQFPWRRYDYWGQGTQVTVSS”, the “polyreactivity (PSR sort gate)” value is recorded as “high polyreactivity”.

On to “QVQLVESGGGLVQAGGSLRLSCAASGRTFPVNAMGWYRQAPGKERELVAAITTNGGRTYYADSVKGRFTISRDNAKNTVYLQMNSLKPEDTAVYYCATRAYNDKRYGYWGQGTQVTVSS”, for which the “polyreactivity (PSR sort gate)” value is listed as “high polyreactivity”.

On to “QVQLVESGGGLVQAGGSLRLSCAASGRTFPWYAMGWYRQAPGKERELVADITWSGGSTYYADSVKGRFTISRDNAKNTVYLQMNSLKPEDTAVYYCATRVLFWYRKYPGRPLTKYDYWGQGTQVTVSS”, for which the “polyreactivity (PSR sort gate)” value is reported as “high polyreactivity”.

On to “QVQLVESGGGLVQAGGSLRLSCAASGRTFPWYAMGWYRQAPGKERELVATISRSGASTYYADSVKGRFTISRDNAKNTVYLQMNSLKPEDTAVYYCAARLGYATLYSWGQGTQVTVSS”, for which the “polyreactivity (PSR sort gate)” value was “high polyreactivity”.

Regarding “QVQLVESGGGLVQAGGSLRLSCAASGRTFPYNAMGWYRQAPGKERELVAAISYSGGRTYYADSVKGRFTISRDNAKNTVYLLMNSLKPEDTAVYYCNALGSGREDDYWGQGTQVTVSS”, the “polyreactivity (PSR sort gate)” value is “high polyreactivity”.

For the sequence “QVQLVESGGGLVQAGGSLRLSCAASGRTFPYNAMGWYRQAPGKERELVAVISSSGGSTYYADSVKGRFTISRDNAKNTVYLQMNSLKPEETAVYYCNTRPYYYRRPGYRYSGYDYWGQGTQVTVSS”, the “polyreactivity (PSR sort gate)” value is “high polyreactivity”.

With “QVQLVESGGGLVQAGGSLRLSCAASGRTFPYYAMGWSRQAPGKERELVAGITSNAGSTYYADSVKGRFTISRDNAKNTVYLQMNSLKPEDTAVYYCAKTKAGRWTTFKFGYWGQGTQVTVSS”, the “polyreactivity (PSR sort gate)” value is listed as “high polyreactivity”.

“QVQLVESGGGLVQAGGSLRLSCAASGRTFPYYAMGWYRQAPGKEREFVAGISRTGGSTYYADSVKGRFTISRDNAKNTVYLQMNSLKPEDTAVYYCNAPYIMTQQGGRRYDYWGQGTQVTVSS”: the “polyreactivity (PSR sort gate)” value is listed as “high polyreactivity”.

In the case of “QVQLVESGGGLVQAGGSLRLSCAASGRTFPYYAMGWYRQAPGKERELVAAINGRGGSTYYSDSVKGRFTISRDNAKNTVYLQMNSLKPEDTAVYYCAARYESRYSRYGYWGQGTQVTVSS”, the “polyreactivity (PSR sort gate)” value is on record as “high polyreactivity”.

“QVQLVESGGGLVQAGGSLRLSCAASGRTFPYYAMGWYRQAPGKERELVAAISYSGGTTYYADSVKGRFTISRDNAKNTVYLQMNSLKPEDTAVYYCAAERAILSSDKQSLWRFDYWGQGTQVTVSS”: the “polyreactivity (PSR sort gate)” value is reported as “low polyreactivity”.

For the sequence “QVQLVESGGGLVQAGGSLRLSCAASGRTFPYYAMGWYRQAPGKERELVARIRSDGSTNYADSVKGRFTISRDNAKNTVYLQINSLKPDDTAVYDCAAKPYPSLFFHYGYWGQGTQVTVSS”, the “polyreactivity (PSR sort gate)” value is on record as “low polyreactivity”.

As to “QVQLVESGGGLVQAGGSLRLSCAASGRTFPYYAMGWYRQAPGKERELVARITSGSGTYYADSVKGRFTISRDNAKNTVYLQMNSLKPEDTAVYYCAAREPGVGYVGHYTGLDYWGQGTQVTVSS”, the “polyreactivity (PSR sort gate)” value is “low polyreactivity”.

As to “QVQLVESGGGLVQAGGSLRLSCAASGRTFPYYDIGWYRKAPGKERELVAAITSGGTTNYADSVKGRFTISRDNAKNTVYLQMNSLKPEDTAVYNCAAGSPWYYFSSYGYWGQGTQVTVSS”, the “polyreactivity (PSR sort gate)” value is “low polyreactivity”.

Regarding “QVQLVESGGGLVQAGGSLRLSCAASGRTFQDNAMGWNRQAPGKETELVAAISWRGGSTNYADSVKGRFTISRDHAKNTVYLQMNSLKPEHTAVYYCNRDPRKYGKLDYWGQGTQVTVSS”, the “polyreactivity (PSR sort gate)” value is reported as “low polyreactivity”.

Turning to “QVQLVESGGGLVQAGGSLRLSCAASGRTFQENGMGWYRQAPGKERELVATISQRGTSTYYADSVKGRFTISRDNAKNTVYLQMNSLKPEDTAVEYCARRRVYRWYTGDYWGQGTQVTVSS”, the “polyreactivity (PSR sort gate)” value is recorded as “low polyreactivity”.

On to “QVQLVESGGGLVQAGGSLRLSCAASGRTFQEYAMGWYRQAPGKERELVADISDGGSTNYADSVKGRFTISRDNAKNTVYLQMYRLKPEDTAVYYCAADQYHGVGINFRSDYDYWGQGTQVTVSS”, for which the “polyreactivity (PSR sort gate)” value is given as “low polyreactivity”.

Take “QVQLVESGGGLVQAGGSLRLSCAASGRTFQKYAMGWYRQAPGKERELVAAITGSGGSTYYADSVKGRFTISRDIAKYTVYLQMNSLKPEDTAVYYCAAYAYGVWHSQDGGNYWGQGTLVTVSS”: the “polyreactivity (PSR sort gate)” value was “low polyreactivity”.

Turning to “QVQLVESGGGLVQAGGSLRLSCAASGRTFQNYAMGWYRQAPGKERELVADITSGGSTYADSVKGRFTMSRDNAKNTVYLQMNSLKPEDTAVYYCNADRTYPEPAEYYYWGQGTQVTVSS”, the “polyreactivity (PSR sort gate)” value is on record as “low polyreactivity”.

Take “QVQLVESGGGLVQAGGSLRLSCAASGRTFQPNVMGLFRQEPGKESELVAAISWSGASTYYADSVKGRFTISRDNAKNTVYLQMNSLKPEDTSVYYCAAEFPFPPACDYWGQGTQVTVSS”: the “polyreactivity (PSR sort gate)” value is “low polyreactivity”.

Turning to “QVQLVESGGGLVQAGGSLRLSCAASGRTFQRYALGWYRQAPGKERELVAAITSRGGSTYYADSVKGRFTISRDNAKNTDYLQMNSLIPEETAVYYCSARSRRTHSEPQSEMDYWGQGTQVTVSS”, the “polyreactivity (PSR sort gate)” value is given as “high polyreactivity”.

Consider “QVQLVESGGGLVQAGGSLRLSCAASGRTFQRYAMGWYRQAPGKERELVAAITSGSRTNYADSVKGRFTSSRDNAKNTVYLQMNSLKPEDTAVYYCAADYTWRNNYCGQGTQVTVSS”, for which the “polyreactivity (PSR sort gate)” value was “high polyreactivity”.

Take “QVQLVESGGGLVQAGGSLRLSCAASGRTFQTNDMGWYRQAPGKERELVAAISRRGGSTYYADSVKGRFTISRDNAKNTVYLQMNSLKPEDTAVYYCAATRLSRYEYWGQGTQVTVSS”: the “polyreactivity (PSR sort gate)” value is recorded as “low polyreactivity”.

Turning to “QVQLVESGGGLVQAGGSLRLSCAASGRTFQTYAMGWYRQAPGTERELVAAISSDGSTYYADSVKGRFTISRDNATNTVYFQMHSLKPEDTAVYYRNTAIGDKYDYHVRVDYEYWGQGTQVTLSS”, the “polyreactivity (PSR sort gate)” value is listed as “low polyreactivity”.

For “QVQLVESGGGLVQAGGSLRLSCAASGRTFQYNAMGWNRQAPGKERELVAAISWSDGITYYADSVKGRFTISRDNAKNTVFLQMNSLKPEDTAVYYCAAEGYGLSYYFPYDYWGQGTQVTVSS”, the “polyreactivity (PSR sort gate)” value is “high polyreactivity”.

Consider “QVQLVESGGGLVQAGGSLRLSCAASGRTFQYNAMGWNTQAPGKERELVAAISSGGSTYYADSVKGRFTISRDNAKNTVYLQMNSLKPEDTAVYYCNAVTGYQHVKYRYYYWGQGTQVTVSS”, for which the “polyreactivity (PSR sort gate)” value was “low polyreactivity”.

Regarding “QVQLVESGGGLVQAGGSLRLSCAASGRTFQYYAMGWYRQAPGKERELVAAISGIGTSTSYADSVKGRFTISRDNAKNTVYLQMNSLKPEDTAVYYCAARLLVPCSPWYTNYYWGQGTQVTVSS”, the “polyreactivity (PSR sort gate)” value was “low polyreactivity”.
